According to publication PMC10786891, “Massively parallel profiling of RNA-targeting CRISPR-Cas13d”:

T1: EsCas13d, nuclease-dead (Eubacterium siraeum, UniProt B0MS50, R295A;H300A;R849A;H854A)
T1 sequence: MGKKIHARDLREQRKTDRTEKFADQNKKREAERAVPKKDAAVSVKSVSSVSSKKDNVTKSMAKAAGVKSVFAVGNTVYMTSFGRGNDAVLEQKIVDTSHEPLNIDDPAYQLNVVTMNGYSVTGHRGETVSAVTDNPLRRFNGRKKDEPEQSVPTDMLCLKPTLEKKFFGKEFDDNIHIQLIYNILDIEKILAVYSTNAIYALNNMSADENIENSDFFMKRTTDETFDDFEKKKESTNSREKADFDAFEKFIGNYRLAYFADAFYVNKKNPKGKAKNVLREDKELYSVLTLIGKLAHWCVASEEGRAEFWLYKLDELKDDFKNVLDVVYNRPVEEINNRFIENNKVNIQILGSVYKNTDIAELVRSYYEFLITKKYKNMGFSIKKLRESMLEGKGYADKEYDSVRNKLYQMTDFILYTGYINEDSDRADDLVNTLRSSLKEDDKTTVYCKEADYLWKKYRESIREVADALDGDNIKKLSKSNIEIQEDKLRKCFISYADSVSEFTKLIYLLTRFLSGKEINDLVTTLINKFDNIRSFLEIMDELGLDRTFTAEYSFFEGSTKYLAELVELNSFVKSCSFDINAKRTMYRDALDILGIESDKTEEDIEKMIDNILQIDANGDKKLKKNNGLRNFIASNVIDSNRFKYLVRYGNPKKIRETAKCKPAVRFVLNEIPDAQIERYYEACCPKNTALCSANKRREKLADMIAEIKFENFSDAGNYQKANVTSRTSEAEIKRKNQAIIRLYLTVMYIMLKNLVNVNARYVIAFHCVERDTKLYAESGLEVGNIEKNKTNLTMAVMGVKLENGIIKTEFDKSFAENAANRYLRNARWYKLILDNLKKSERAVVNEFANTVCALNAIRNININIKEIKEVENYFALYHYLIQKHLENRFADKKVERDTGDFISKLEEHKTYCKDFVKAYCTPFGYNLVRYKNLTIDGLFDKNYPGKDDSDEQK


Each binder was assayed against T1, EsCas13d, nuclease-dead (assay: crRNA (strand 1, pre-loaded); Mg2+; 40 mM Tris-HCl pH 7.5, 150 mM NaCl, 6 mM MgCl2, 1 mM DTT, 0.1% Tween-20, 0.2 mg/ml BSA; 25 C; 10 min per concentration, then washed). Conditions: tags: His6-TwinStrep-SUMO cleaved; N-terminal SNAP kept (SNAP-Surface 488); label: 3' end held by stalled T7 RNA polymerase.

| Binder | Kd [nM] |
| --- | --- |
| target 2 MT 5'PFS AGA 3'PFS CAA (mixed) RNA 1: CACCCGUGCAAAAUUGCAGGGGUCUAAAACCUUCUCCAAAUUGUUUCAUCCU RNA 2: GGGAAUGGAUCCACAUCUACGAAUUCAGAAGGAUGAAACAAUUUGGAGAAGCAAAGAUCGGAAGAGCACACGU | 3.5 ± 0.8 |
| target 2 MT 5'PFS AGA 3'PFS CAG (mixed) RNA 1: CACCCGUGCAAAAUUGCAGGGGUCUAAAACCUUCUCCAAAUUGUUUCAUCCU RNA 2: GGGAAUGGAUCCACAUCUACGAAUUCAGAAGGAUGAAACAAUUUGGAGAAGCAGAGAUCGGAAGAGCACACGU | 5.7 ± 0.8 |
| target 2 MT 5'PFS GUU 3'PFS ACU (mixed) RNA 1: CACCCGUGCAAAAUUGCAGGGGUCUAAAACCUUCUCCAAAUUGUUUCAUCCU RNA 2: GGGAAUGGAUCCACAUCUACGAAUUCGUUAGGAUGAAACAAUUUGGAGAAGACUAGAUCGGAAGAGCACACGU | 15.5 ± 1 |
| target 2 MT 5'PFS AGC 3'PFS ACA (mixed) RNA 1: CACCCGUGCAAAAUUGCAGGGGUCUAAAACCUUCUCCAAAUUGUUUCAUCCU RNA 2: GGGAAUGGAUCCACAUCUACGAAUUCAGCAGGAUGAAACAAUUUGGAGAAGACAAGAUCGGAAGAGCACACGU | 7.9 ± 3.2 |
| target 2 MT 5'PFS AGU 3'PFS CAC (mixed) RNA 1: CACCCGUGCAAAAUUGCAGGGGUCUAAAACCUUCUCCAAAUUGUUUCAUCCU RNA 2: GGGAAUGGAUCCACAUCUACGAAUUCAGUAGGAUGAAACAAUUUGGAGAAGCACAGAUCGGAAGAGCACACGU | 15 ± 5 |
| target 1 insC 3' of 22,insA 3' of 6 (mixed) RNA 1: CACCCGUGCAAAAAUGCAGGGGUCUAAAACUGAGCGGAUAACCUCUCUAUGG RNA 2: GGGAAUGGAUCCACAUCUACGAAUUCGUACCCAUAGAGAGGUUAUCCAGCUCACCGAGAUCGGAAGAGCACACGU | 12.9 ± 0.9 |
| target 2 MT 5'PFS AGC 3'PFS ACG (mixed) RNA 1: CACCCGUGCAAAAUUGCAGGGGUCUAAAACCUUCUCCAAAUUGUUUCAUCCU RNA 2: GGGAAUGGAUCCACAUCUACGAAUUCAGCAGGAUGAAACAAUUUGGAGAAGACGAGAUCGGAAGAGCACACGU | 7.1 ± 0.9 |
| target 2 MT 5'PFS AGU 3'PFS CAG (mixed) RNA 1: CACCCGUGCAAAAUUGCAGGGGUCUAAAACCUUCUCCAAAUUGUUUCAUCCU RNA 2: GGGAAUGGAUCCACAUCUACGAAUUCAGUAGGAUGAAACAAUUUGGAGAAGCAGAGAUCGGAAGAGCACACGU | 14.2 ± 3.1 |
| target 2 MT 5'PFS GUU 3'PFS ACA (mixed) RNA 1: CACCCGUGCAAAAUUGCAGGGGUCUAAAACCUUCUCCAAAUUGUUUCAUCCU RNA 2: GGGAAUGGAUCCACAUCUACGAAUUCGUUAGGAUGAAACAAUUUGGAGAAGACAAGAUCGGAAGAGCACACGU | 17.5 ± 2.3 |
| target 2 MT 5'PFS UAG 3'PFS UAG (mixed) RNA 1: CACCCGUGCAAAAUUGCAGGGGUCUAAAACCUUCUCCAAAUUGUUUCAUCCU RNA 2: GGGAAUGGAUCCACAUCUACGAAUUCUAGAGGAUGAAACAAUUUGGAGAAGUAGAGAUCGGAAGAGCACACGU | 3.7 ± 0.4 |
| target 2 MT 5'PFS GUU 3'PFS ACC (mixed) RNA 1: CACCCGUGCAAAAUUGCAGGGGUCUAAAACCUUCUCCAAAUUGUUUCAUCCU RNA 2: GGGAAUGGAUCCACAUCUACGAAUUCGUUAGGAUGAAACAAUUUGGAGAAGACCAGAUCGGAAGAGCACACGU | 18.1 ± 3 |
| target 2 MT 5'PFS AAU 3'PFS UCA (mixed) RNA 1: CACCCGUGCAAAAUUGCAGGGGUCUAAAACCUUCUCCAAAUUGUUUCAUCCU RNA 2: GGGAAUGGAUCCACAUCUACGAAUUCAAUAGGAUGAAACAAUUUGGAGAAGUCAAGAUCGGAAGAGCACACGU | 10.4 ± 3.5 |
| target 2 MT 5'PFS GUU 3'PFS ACG (mixed) RNA 1: CACCCGUGCAAAAUUGCAGGGGUCUAAAACCUUCUCCAAAUUGUUUCAUCCU RNA 2: GGGAAUGGAUCCACAUCUACGAAUUCGUUAGGAUGAAACAAUUUGGAGAAGACGAGAUCGGAAGAGCACACGU | 17.5 ± 1.4 |
| target 2 MT 5'PFS AGA 3'PFS CAU (mixed) RNA 1: CACCCGUGCAAAAUUGCAGGGGUCUAAAACCUUCUCCAAAUUGUUUCAUCCU RNA 2: GGGAAUGGAUCCACAUCUACGAAUUCAGAAGGAUGAAACAAUUUGGAGAAGCAUAGAUCGGAAGAGCACACGU | 8 ± 1.9 |
| target 2 MT 5'PFS GUG 3'PFS CAG (mixed) RNA 1: CACCCGUGCAAAAUUGCAGGGGUCUAAAACCUUCUCCAAAUUGUUUCAUCCU RNA 2: GGGAAUGGAUCCACAUCUACGAAUUCGUGAGGAUGAAACAAUUUGGAGAAGCAGAGAUCGGAAGAGCACACGU | 10.5 ± 0.8 |
| target 2 MT 5'PFS AGU 3'PFS CAU (mixed) RNA 1: CACCCGUGCAAAAUUGCAGGGGUCUAAAACCUUCUCCAAAUUGUUUCAUCCU RNA 2: GGGAAUGGAUCCACAUCUACGAAUUCAGUAGGAUGAAACAAUUUGGAGAAGCAUAGAUCGGAAGAGCACACGU | 11.1 ± 2.7 |
| target 1 complement block 2-7 (mixed) RNA 1: CACCCGUGCAAAAAUGCAGGGGUCUAAAACUGAGCGGAUAACCUCUCUAUGG RNA 2: GGGAAUGGAUCCACAUCUACGAAUUCGUACCAUAGAGAGGUUAUGGCGAGACCGAGAUCGGAAGAGCACACGU | 13.8 ± 0.7 |
| target 2 MT 5'PFS AGC 3'PFS ACU (mixed) RNA 1: CACCCGUGCAAAAUUGCAGGGGUCUAAAACCUUCUCCAAAUUGUUUCAUCCU RNA 2: GGGAAUGGAUCCACAUCUACGAAUUCAGCAGGAUGAAACAAUUUGGAGAAGACUAGAUCGGAAGAGCACACGU | 17 ± 6 |
| target 2 MT 5'PFS GUG 3'PFS CAC (mixed) RNA 1: CACCCGUGCAAAAUUGCAGGGGUCUAAAACCUUCUCCAAAUUGUUUCAUCCU RNA 2: GGGAAUGGAUCCACAUCUACGAAUUCGUGAGGAUGAAACAAUUUGGAGAAGCACAGAUCGGAAGAGCACACGU | 10.6 ± 1 |
| target 2 MT 5'PFS AGA 3'PFS AGC (mixed) RNA 1: CACCCGUGCAAAAUUGCAGGGGUCUAAAACCUUCUCCAAAUUGUUUCAUCCU RNA 2: GGGAAUGGAUCCACAUCUACGAAUUCAGAAGGAUGAAACAAUUUGGAGAAGAGCAGAUCGGAAGAGCACACGU | 5.6 ± 1.2 |
| target 2 MT 5'PFS UAG 3'PFS UAC (mixed) RNA 1: CACCCGUGCAAAAUUGCAGGGGUCUAAAACCUUCUCCAAAUUGUUUCAUCCU RNA 2: GGGAAUGGAUCCACAUCUACGAAUUCUAGAGGAUGAAACAAUUUGGAGAAGUACAGAUCGGAAGAGCACACGU | 2.65 ± 0.29 |
| target 2 MT 5'PFS AGA 3'PFS AGA (mixed) RNA 1: CACCCGUGCAAAAUUGCAGGGGUCUAAAACCUUCUCCAAAUUGUUUCAUCCU RNA 2: GGGAAUGGAUCCACAUCUACGAAUUCAGAAGGAUGAAACAAUUUGGAGAAGAGAAGAUCGGAAGAGCACACGU | 4.9 ± 0.7 |
| target 2 MT 5'PFS UAG 3'PFS UAA (mixed) RNA 1: CACCCGUGCAAAAUUGCAGGGGUCUAAAACCUUCUCCAAAUUGUUUCAUCCU RNA 2: GGGAAUGGAUCCACAUCUACGAAUUCUAGAGGAUGAAACAAUUUGGAGAAGUAAAGAUCGGAAGAGCACACGU | 2.8 ± 0.4 |
| target 2 MT 5'PFS UUA 3'PFS CGA (mixed) RNA 1: CACCCGUGCAAAAUUGCAGGGGUCUAAAACCUUCUCCAAAUUGUUUCAUCCU RNA 2: GGGAAUGGAUCCACAUCUACGAAUUCUUAAGGAUGAAACAAUUUGGAGAAGCGAAGAUCGGAAGAGCACACGU | 24 ± 4 |
| target 2 MT 5'PFS UUA 3'PFS CGC (mixed) RNA 1: CACCCGUGCAAAAUUGCAGGGGUCUAAAACCUUCUCCAAAUUGUUUCAUCCU RNA 2: GGGAAUGGAUCCACAUCUACGAAUUCUUAAGGAUGAAACAAUUUGGAGAAGCGCAGAUCGGAAGAGCACACGU | 48 ± 10 |
| target 2 MT 5'PFS UUA 3'PFS CGG (mixed) RNA 1: CACCCGUGCAAAAUUGCAGGGGUCUAAAACCUUCUCCAAAUUGUUUCAUCCU RNA 2: GGGAAUGGAUCCACAUCUACGAAUUCUUAAGGAUGAAACAAUUUGGAGAAGCGGAGAUCGGAAGAGCACACGU | 20.9 ± 2.1 |
| target 2 MT 5'PFS UUA 3'PFS AGG (mixed) RNA 1: CACCCGUGCAAAAUUGCAGGGGUCUAAAACCUUCUCCAAAUUGUUUCAUCCU RNA 2: GGGAAUGGAUCCACAUCUACGAAUUCUUAAGGAUGAAACAAUUUGGAGAAGAGGAGAUCGGAAGAGCACACGU | 23.1 ± 3 |
| target 1 insG 3' of 14,insG 3' of 9 (mixed) RNA 1: CACCCGUGCAAAAAUGCAGGGGUCUAAAACUGAGCGGAUAACCUCUCUAUGG RNA 2: GGGAAUGGAUCCACAUCUACGAAUUCGUACCAUAGAGAGGGUUAGUCCGCUCACCGAGAUCGGAAGAGCACACGU | 21.5 ± 1.5 |
